Drawing on JP2024517985A, this text covers EC50 for three molecules.

The target in this experiment is T1, CD300c抗原(11832-H08H、Sino Biological) (UniProt Q08708).
T1 sequence (looked up): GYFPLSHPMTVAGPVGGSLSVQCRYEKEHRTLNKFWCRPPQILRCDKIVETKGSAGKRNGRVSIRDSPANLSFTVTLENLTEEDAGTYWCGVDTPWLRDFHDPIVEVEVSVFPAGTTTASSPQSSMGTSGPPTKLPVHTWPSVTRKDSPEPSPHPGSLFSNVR
Nature of the experiment: binding ELISA, CD300c antigen coated at 8 ug/mL, HRP anti-Fc IgG.

A word on the EC50: it is the concentration needed to bring the measured effect to its halfway point. Lower therefore signals an effect from little substance.

Residue numbers refer to the chain shown, from its start. Where only a bound is given, the exact number is not on record here.

B1: 抗-CD300cモノクローナル抗体 CK3 (antibody, from another filing, V domains shown)
VH: RVQLLESGGGLVQPGGSLRLSCAASGFTFSSYAISWVRQAPGKGLEWVSATSGSGRATYYADSVKGRFTISRDNSKNTLYLQMNSLRAEDTAVYYCARDTWWEGYFDLWGQGTLVTVSS
VL: EIVLTQSPGTLSLSPGERATLSCQASHISTHLNWYQQKPGQAPRLLIYGASSRATGIPDRFSGSGSGTDFTLTISRLEPEDFAVYYCQQYNTYPPTFGQGTKVEIK
As to B1, the EC50 is above 0.2 µg/mL.

B2: 抗-CD300cモノクローナル抗体 SK15 (antibody, from another filing, V domains shown)
VH: RVQLLESGGGLVQPGGSLRLSCAASGFTFSSYAMHWVRQAPGKGLEWVSAINGSGGSTYYADSVKGRFTISRDNSKNTLYLQTNSLRAEDTAVYYCARGLQGFDYWGQGTLVTVSS
VL: EIVLTQSPGTLSLSPGERATLSCQASQDITNYLNWYQQKPGQAPRLLIYDASSLETGIPDRFSGSGSGTDFTLTISRLEPEDFAVYYCQQSYSTPITFGQGTKVEIK
B2: the EC50 is above 0.2 µg/mL.

B3: 抗-CD300cモノクローナル抗体 SK16 (antibody, from another filing, V domains shown)
VH: B2 VH with H35S, Y59L, T83M, L100V, Q101S, Y105S
VL: B2 VL with Q24R, A25I, D28S, T30S, N31S, S53L, L54R, E55A, S93K
For the molecule B3, the concentration giving a half-maximal response (EC50) was above 0.2 µg/mL.
